One molecule from PMC11814294, “A pathogen effector HaRxL10 hijacks the circadian clock component CHE to perturb both plant development and immunity” can be followed below.

This series concerns the target GST-CHE (Arabidopsis thaliana, UniProt Q9FTA2 1-239). Put plainly: EMSA; 5 pmol protein, 50 fmol probe; no HaRxL10; LightShift Chemiluminescent EMSA Kit per manufacturer; 5 pmol protein, 50 fmol biotin probe, 200-fold unlabelled competitor; probes annealed in 10 mM Tris, 1 mM Na2EDTA, 50 mM NaCl; binding buffer, pH and temperature not stated. The settings on record: protein: recombinant; tags: GST (pET-42a); chain copies: 2; label: 5'-biotin; blunt.

GST-CHE, sequence (Q9FTA2 whole entry): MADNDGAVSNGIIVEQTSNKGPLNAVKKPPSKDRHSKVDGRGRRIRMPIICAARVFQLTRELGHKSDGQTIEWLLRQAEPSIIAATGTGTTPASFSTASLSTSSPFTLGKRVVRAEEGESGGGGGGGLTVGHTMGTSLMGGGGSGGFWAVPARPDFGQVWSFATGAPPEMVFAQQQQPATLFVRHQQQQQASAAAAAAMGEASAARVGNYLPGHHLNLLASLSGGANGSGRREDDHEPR

B1: TBS probe (dsDNA)
DNA 1: GTAGGTCCCACTAGGTAGGTCCCACTAGGTAGGTCCCACTAGGTAGGTCCCACTAGGTAGGTCCCACTAG
DNA 2: CTAGTGGGACCTACCTAGTGGGACCTACCTAGTGGGACCTACCTAGTGGGACCTACCTAGTGGGACCTAC
As for B1, the binding result is given as “binds”.
